What was measured:
[1] = molecular target: FcαRIR209L/γ chimeric receptor (human) (UniProt P24071); assay: cell-based or functional assay
[2] = molecular target: wild-type human FcαRI (human) (UniProt P24071); assay: cell-based or functional assay

Substance: anti-FcαRI Fab A77 (Fab fragment of anti-FcαRI mAb, IgG1κ, clone A77)
- inhibition of IgE-mediated degranulation against irrelevant control Fab [1]: 91%
- Fab concentration giving maximal inhibition of degranulation [2]: 1 to 10 µg/mL
- inhibition of FcεRI-induced degranulation, 10 µg/ml Fab [2]: > 50%
- inhibition of IgE-mediated degranulation (β-hexosaminidase release), 10 µg/ml Fab [2]: 74%
- inhibition of IgE-mediated degranulation against irrelevant control Fab [2]: 72%
- inhibition of IgG-mediated phagocytosis of E. coli by human blood monocytes [2]: > 80%

From patent US20080085280A1
